40 sequences from the supplement of paper PMC7877785 can be followed below.

± gives the uncertainty stated by the source.

The data set in a line: self-splicing fitness, log relative to wild type (ln ratio); higher = more splicing; Tetrahymena group I intron in knt gene, E. coli kanamycin selection, DiMSum; sequences stand for … in CUCUCU…GGAGGGAAAAGUUAUCAGGCAUGCACCUGGUAGCUAGUCUUUAAACCAAUAGAUUGCAUCGGUUUAAAAGGCAAGACCGUCAAAUUGCGGGAAAGGGGUCAACAGCCGUUCAGUACCAAGUCUCAGGGGAAACUUUGAGAUGGCCUUGCAAAGGGUAUGGUAAUAAGCUGACGGACAUGGUCCUAACCACGCAGCCAAGUCCUAAGUCAACAGAUCUUCUGUUGAUAUGGAUGCAGUUCACAGACUAAAUGUCGGUCGGGGAAGAUGUAUUCUUCUCAUAAGAUAUAGUCGGACCUCUCCUUAAUGGGAGCUAGCGGAUGAAGUGAUGCAACACUGGAGCCGCUGGGAACUAAUUUGUAUGCGAAAGUAUAUUGAUUAGUUUUGGAGUACUCGUGGUCG
In short, it runs like this:
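Fitness was computed with DiMSum as the error-weighted combination of replicate fold changes, kanamycin versus none, each normalised to wild type. The library randomised all eight intron nucleotides of the P1ex region, with the intron placed in the knt kanamycin-resistance gene on pET-22b(+) in E. coli BL21(DE3). Six replicate transformations were grown overnight at 37°C or 30°C on LB agar with or without 25 μg/mL kanamycin, plus 100 μg/mL carbenicillin, 50 μM IPTG and 0.2% rhamnose. Pooled colonies were amplicon-sequenced on an Illumina HiSeq 2500.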

Turning to CCAGAGCAAUAUUACGAGAU, the “self-splicing fitness (ln)” value runs as follows: (30 °C) -4.57 ± 0.2; (37 °C) -3.15 ± 0.16. For GAAGAGCAAUAUUACGACAU, the “self-splicing fitness (ln)” value was -2.22 ± 0.017 (30 °C) and -1.35 ± 0.035 (37 °C). The matching figures for AUCUAGCAAUAUUACGGGGG: -1.65 ± 0.11 and -1.9 ± 0.15. The matching figures for UGAUAGCAAUAUUACGUAUG: -1.1 ± 0.16 and -0.567 ± 0.16.

Turning to AGAAAGCAAUAUUACGGCAU, the “self-splicing fitness (ln)” value runs as follows: (30 °C) -0.587 ± 0.051; (37 °C) -0.525 ± 0.064.

As to GGGCAGCAAUAUUACGAUAG, the “self-splicing fitness (ln)” value by setting is: (30 °C) -3.54 ± 0.2; (37 °C) -2.43 ± 0.22. The matching figures for CGCAAGCAAUAUUACGUGAC: -2.74 ± 0.2 and -2.5 ± 0.3. Take UCUAAGCAAUAUUACGUGUG: the “self-splicing fitness (ln)” value (30 °C) was -1.02 ± 0.075 and the “self-splicing fitness (ln)” value (37 °C) is -0.603 ± 0.1. The corresponding values for GCAUAGCAAUAUUACGGCUA are -1.16 ± 0.069 and -0.431 ± 0.069. The matching figures for AGUUAGCAAUAUUACGCGAC: -2.88 ± 0.45 and -0.848 ± 0.26.

Regarding UUCUAGCAAUAUUACGUCUU, the “self-splicing fitness (ln)” value (30 °C) is -3.03 ± 0.29 and the “self-splicing fitness (ln)” value (37 °C) is -2.26 ± 0.23.

Consider GCCCAGCAAUAUUACGCACG, for which the “self-splicing fitness (ln)” value (30 °C) is -3.39 ± 0.2. For UCUGAGCAAUAUUACGACUA, the “self-splicing fitness (ln)” value (30 °C) was -2.49 ± 0.19 and the “self-splicing fitness (ln)” value (37 °C) was -1.64 ± 0.17. Regarding GCACAGCAAUAUUACGCAGC, where the note is “37 °C”, the “self-splicing fitness (ln)” value is -1.85 ± 0.21.

With AUGAAGCAAUAUUACGGAGA, the “self-splicing fitness (ln)” value (30 °C) was -2.55 ± 0.33 and the “self-splicing fitness (ln)” value (37 °C) is -0.873 ± 0.23.

For ACGAAGCAAUAUUACGUAGC, the “self-splicing fitness (ln)” value runs as follows: (30 °C) -3.19 ± 0.17; (37 °C) -1.16 ± 0.14. On to CGGAAGCAAUAUUACGAGGA, for which the “self-splicing fitness (ln)” value runs as follows: (30 °C) -1.95 ± 0.2; (37 °C) -1.4 ± 0.19.

For the sequence UUGAAGCAAUAUUACGUAAG, the “self-splicing fitness (ln)” value was -0.735 ± 0.083 (30 °C) and 0.223 ± 0.12 (37 °C). The matching figures for GUACAGCAAUAUUACGCCCU: -1.64 ± 0.34 and -0.525 ± 0.32. The matching figures for CCGUAGCAAUAUUACGGUGC: -2.96 ± 0.16 and -1.93 ± 0.16. With CGGCAGCAAUAUUACGACGC, the “self-splicing fitness (ln)” value (30 °C) was -3.45 ± 0.28 and the “self-splicing fitness (ln)” value (37 °C) was -0.355 ± 0.21. The corresponding values for UCCGAGCAAUAUUACGCUUG are -3.49 ± 0.28 and -2.09 ± 0.25. The corresponding values for AAUUAGCAAUAUUACGUGGU are -4.47 ± 0.26 and -2.18 ± 0.14. As to GGUGAGCAAUAUUACGAAUC, the “self-splicing fitness (ln)” value (37 °C) is -2.04 ± 0.4.

Consider UGAUAGCAAUAUUACGAUGA, for which the “self-splicing fitness (ln)” value runs as follows: (30 °C) -0.925 ± 0.15; (37 °C) -0.791 ± 0.12.

ACUCAGCAAUAUUACGAGGC: the “self-splicing fitness (ln)” value was -3.27 ± 0.34 (30 °C) and -2.56 ± 0.3 (37 °C).

Regarding UGCGAGCAAUAUUACGCCCU, for the setting “30 °C”, the “self-splicing fitness (ln)” value is -0.783 ± 0.39. Regarding GAGCAGCAAUAUUACGCGAC, the “self-splicing fitness (ln)” value was -3.05 ± 0.49 (30 °C) and -1.13 ± 0.29 (37 °C). The corresponding values for CGUGAGCAAUAUUACGGGGU are -3.62 ± 0.2 and -3.32 ± 0.26.

As for UGCCAGCAAUAUUACGGAAG, the “self-splicing fitness (ln)” value by setting is: (30 °C) -2.55 ± 0.073; (37 °C) -1.42 ± 0.071. The matching figures for GAACAGCAAUAUUACGACGC: -0.0786 ± 0.067 and 0.151 ± 0.088.

As for CGAUAGCAAUAUUACGAAUC, the “self-splicing fitness (ln)” value is, setting by setting: (30 °C) -3.74 ± 0.22; (37 °C) -3.08 ± 0.28. Take AGCGAGCAAUAUUACGGUAC: the “self-splicing fitness (ln)” value (30 °C) is -3.58 ± 0.36.

For the sequence AAUAAGCAAUAUUACGUUUU, the “self-splicing fitness (ln)” value reads like this: (30 °C) -1.78 ± 0.076; (37 °C) -1.55 ± 0.12. The corresponding values for CGGAAGCAAUAUUACGUUUU are -3.64 ± 0.23 and -2.95 ± 0.18. The corresponding values for GACUAGCAAUAUUACGUACA are -1.02 ± 0.14 and -0.0348 ± 0.15. The corresponding values for CUAAAGCAAUAUUACGUUAA are -3.6 ± 0.11 and -2.53 ± 0.15. Regarding CGCGAGCAAUAUUACGUGAC, the “self-splicing fitness (ln)” value (37 °C) is -2.54 ± 0.3. GAACAGCAAUAUUACGAGAA: the “self-splicing fitness (ln)” value runs as follows: (30 °C) -3.45 ± 0.25; (37 °C) -1.44 ± 0.17.

Consider AUAAAGCAAUAUUACGCAGC, for which the “self-splicing fitness (ln)” value was -3.55 ± 0.4 (30 °C) and -1.04 ± 0.28 (37 °C).
